Test results taken from patent US20250382354A1 (INSTITUTE FOR RESEARCH IN BIOMEDICINE IRB, published 2025).
Substitutions are numbered along the chain they refer to.

Assays:
[1] = molecular target: SARS-CoV-2 S of the Ancestral pseudovirus (pSARS-COV2-Strunc) (SARS-CoV-2 (ancestral), UniProt P0DTC2 14-1254); assay: cell-based or functional assay
[2] = molecular target: C-terminally truncated SARS-CoV-2 S protein (pSARS-CoV2-Strunc), ancestral (SARS-CoV-2, UniProt P0DTC2 14-1273); assay: cell-based or functional assay

B1: rbd.106 (antibody, V domains shown)
VH: EVQLVQSGAEVKKPGESLKISCKGSGYSFYNHWIAWVRQMPGKGLEWMGIIYPYDSDTRYSPSFQGQVTISADKSITTAYLQWSSLKASDTAIYYCARRSDYGEFGGHSDYWGQGTLVTVSS
VL: not shown
Ancestral Pseudovirus IC50 [1]: 0.0674 mg/L

B2: hr2.019 (antibody, V domains shown)
VH: EVQLVESGGGLVKPGGSLRLSCAASGSSVIDVWMNWVRQAPGKGLEWVGRIKTKASGAATDYGAPVKGRFTISRDDSKNLSYLQMNSLRAEDTGIYYCTTSPLPNFDYWGRGTLVTVSS
VL: DIVMTQSPDFLAVSLGETATINCRSSQSVFYFANNKNYLAWYQQKPGQPPKLLIYWASKRESGVPDRFSGSGSGTDFTLTISSLQAEDVATYYCQQYSSPAITFGPGTKVDIK
Ancestral Pseudovirus IC50 [2]: 1.22 mg/L

B3: rbd.045 (antibody, V domains shown)
VH: QVQLQESGPGLVKPSETLSLTCTVSGGAFRSFFWTWIRQPPGKGLEWIGNIYYSGSTNYNPSLKSRVTISQDMSENQFSLKLSSVTAADTAVYYCARSQWLRGNFDHWGQGILVTVSS
VL: NFMLTQPHSVSESPGKTVTISCTATSGYIASNYVQWYQQRPGSAPTTVIYEDNQRPSGVPDRFSGSIDSSSNSASLTISGLKPEDEADYYCQSFDTAYAVFGGGTQLTVL
Ancestral Pseudovirus IC50 [1]: 0.00557 mg/L

B4: fp.007 (antibody, V domains shown)
VH: EVQLVESGGGLVKPGGSLRLSCAGTGFIFSDAWMTWVRQAPGKGLEWVGRIKSKADGGTTDYAAPVKGRFTISRDDSKNTLYLEINSLKTEDTAVYYCTTGRSRYCIGAVCYYFDHWGQGTLVTVSS
VL: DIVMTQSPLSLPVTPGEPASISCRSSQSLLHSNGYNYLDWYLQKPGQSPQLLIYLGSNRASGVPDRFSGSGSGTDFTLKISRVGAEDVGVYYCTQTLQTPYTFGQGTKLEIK
Ancestral Pseudovirus IC50 [2]: 11.1 mg/L | Ancestral Pseudovirus IC50 (on cells with [not given]) [2]: 3.98 mg/L

B5: rbd.141 (antibody, V domains shown)
VH: EVQLVESGGGVVQPGRSLRLSCAASGFTFSSYGMHWVRQAPGKGLEWVAVISYDGKIKYYADSVEGRFTISRDNSKNALYLQMNSLRAEDTAVYYCAKYGIVTSFGVVPPYDMDVWGQGTTVTVSS
VL: DVVMTQSPLSLPVTLGQPASISCRSSQSLVYSDGNTFLNWFQQRPGQSPRRLIYKVSDRDSGVPDRFSGSGSGTDFTLKISRVEAEDVGVYYCMQGTNWPPTFGQGTKVEIK
Ancestral Pseudovirus IC50 [1]: 0.164 mg/L

B6: rbd.112 (antibody, V domains shown)
VH: EVQLVQSGAEVKKSGESLKISCKSSGYSFTTYWIAWVRQMPGKGLEWMGIIYPGHSDARYSPSFQGHVTISADKSISTAYLQWRSLKASDTAIYYCARLSYYDVSNFYYYDSYWFDSWGLGTLVTVSS
VL: QSVLTQPPSVSGAPGQRVTISCTGSSSNLGAGYDVHWYQQLPGTAPKLLIYANSNRPSGVPDRFSGSKSGTSASLAMTGLQAEDEADYYCQSYDSSLGGYVFGFGTKVTVL
Ancestral Pseudovirus IC50 [1]: 0.0867 mg/L

B7: sd1.040 (antibody, V domains shown)
VH: QVQLVQSGAEVKKPGASVKVSCKASGYTFTSFYIHWVRQAPGQGLEWMGIIDPSGGSTSYPQKFQGRVTMTRDTSTSTVYMDLSSLRSEDTAVYYCTRDGSAGDNSWFDPWGQGTLVTVSS
VL: not shown
Ancestral Pseudovirus IC50 [1]: 0.245 mg/L

B8: rbd.110 (antibody, V domains shown)
VH: EVQLVESGGGVVQPGRSLRLSCVASGFTFSRYGMHWVRQAPGKGLEWVATILYDGSDQYYAESVKGRFTISRDNSKNTLYLQMNSLREADTAVYYCAKTSYGYAYNFRLYFDYWGQGTLVTVSS
VL: SYELTQPPSVSVAPGKTATITCGGNNIGSAGVHWYQQRPGQAPVLVVYDDSDRPSGIPERFSGSTSGNTATLTISRVEAGDEADYYCQVWDSNSAPVIFGGGTKLTVL
Ancestral Pseudovirus IC50 [1]: 4.25 mg/L

B9: rbd.048 (antibody, V domains shown)
VH: EVQLVESGGGLVQPGGSLRLSCAASGFTVSSNYMTWVRQAPGKGLEWVSVIYSGGSTFYTDSVKGRFTISRDNSKNTLYLQMNSLRAEDTAVYYCARDVVYYGMDVWGQGTTVTVSS
VL: DIQMTQSPSSLSASVGDRVTITCRASQSISSYLNWYQQKPGKAPKLLIYAASSLQSGVPSRFSGSGSGTDFTLTISSLQPEDFATYYCQESYSNSPYTFGQGTKLEIK
Ancestral Pseudovirus IC50 [1]: 0.00275 mg/L

B10: sd1.108 (antibody, V domains shown)
VH: QVQLVQSGAEVKKPGASVKVSCKASGYTFTSYYIHWVRQTPGQGLEWMGIINPRGGSTSYPQKFQGRVSMTRDTSTSTVFMELSSLRSDDTAVYYCAREHREDTAMDNQPSDSWGQGTLVTVSS
VL: DIVMTQSPDSLSVSLGERATINCKSSRSVFYSSNNKSYLAWYQQKPGQPPKLLIYWASTRESGVRDRFSGSGSGTDFTLTISSLQAEDVAVYYCQQYYNTPYTFGQGTKLEIK
Ancestral Pseudovirus IC50 [1]: 0.446 mg/L

B11: rbd.049 (antibody, V domains shown)
VH: QLQLQESGPGLVKPSETLSLSCTVSGGSISSKSDYWGWIRQSPGKGLEWIGSIYYTGTTYYNPSLKSRVSISLDKSKNQFSLKLNSLTAADTALYYCARDPSIAVATTVYFDAWGQGTLVTVSS
VL: EIVLTQSPGTLSLSPGERATLSCRASESVKSNYLAWYQQKLGQPPRLLIFGASTRATGIPDRFSGSGSGTDFTLTISRLEPEDFAVYYCQQYHTSPPRYTFGQGTKLEIK
Ancestral Pseudovirus IC50 [1]: 3.71 mg/L

B12: sd1.034 (antibody, V domains shown)
VH: EVQLVESGGGVVQPGRSLRLSCAASGFSFSNYGMHWVRQAPGKGLEWVAVISYDGSHKSFADSVKGRFTISRDNSKNTLNLQMNSLRREDTAVYYCATDQGGSLGYWGQGTLVTVSS
VL: QSALTQPASVSGSPGQSITISCTGTSGDVGGYNYVSWYQHHPGKAPKLMIYDVSNRPSGVSNRFSGSKSGNTASLTISGLQAEDEADYYCSSYTSTSTSWVFGGGTKLTVL
Ancestral Pseudovirus IC50 [1]: 0.387 mg/L

B13: rbd.038 (antibody, V domains shown)
VH: QVQLVQSGAEVKKPGASVKVSCKASGYTFSGYYMHWVRQAPGQGLEWVGWISPTSGGTKYAQKFQGRVTMTRDTSITTVYMELNRLRSDDTAVYYCAREPFPYCTSDICHSNYFYYYAMDVWGQGTTVTVSS
VL: QSALTQPPSASGSPGQSVTISCTGSSSDLGDHNYVSWYQQHPGKAPKVMIYEVSKRPSGVPDRFSGSKSGNTASLTVSGLQAEDEADYYCSSYAGSLYVFGTGTKVTVL
Ancestral Pseudovirus IC50 [1]: 0.000552 mg/L

B14: hr2.090 (antibody, V domains shown)
VH: EVQLLESGGGLVQPGGSLRLSCAASGVTFSRYAMSWVRQAPGKGLEWVSTISGGGGGTYYADSVKGRFTISRDNSKNTLYLQMNSLRAEDTAVYYCATLLTVPGPYYFEYWGQGTLVTVSS
VL: EIVLTQSPGTLSLSPGERATLSCRASQSVSSSYLAWYQQKPGQAPRLLIYGASSRATGIPDRFSGSGSGTDFTLTISRLESEDFAVYYCQHSRFTFGPGTRVDIK
Ancestral Pseudovirus IC50 [2]: 1.02 mg/L

B15: rbd.117 (antibody, V domains shown)
VH: EVQLVESGGGLVQPGGSLRLSCAASGFTFSRYAMSWVRQAPGKGLEWVSGLSGSGDSTYYADSVKGRFTISRDNSKKTLNLQMNSLRPEDTAVYYCAKGSRFGIDYFDCWGQGTLVTVSS
VL: DIQMTQSPSTLSASVGDRVTITCRASQSISSWLAWYQLKPGKAPKLLIYDASSLESGVPSRFSGSGSGTEFTLTISSLQPDDFATYYCQQYNTYPFSFGPGTKVDIK
Ancestral Pseudovirus IC50 [1]: 0.203 mg/L

B16: rbd.123 (antibody, V domains shown)
VH: QVQLVQSGAEVKKPGSSVKVSCKASGGAFRMYAISWVRQAPGQGLEWMGGIIPISGTATYTQNFQGRVTITVDRSTSTAYMELSSLRSDDTALYYCARGPRTGYDYFDFWGQGTLVTVSS
VL: B15 VL with L38Q, K45N, N92K, T93S, F96Y, S97T, P100Q, V104L, D105E
Ancestral Pseudovirus IC50 [1]: 1.21 mg/L

B17: rbd.035 (antibody, V domains shown)
VH: EVQLLESGGGLIEPGGSLRLSCAASGFPFNTFAMTWVRQPPGKGLEWVATISSRGDYTFYADFVKGRFSISRDNANNALWLDMSGLRAEDTALYYCAKGESGYDLYLYGLDLWGQGTTVTVSS
VL: DIQMTQSPSSLSASVGDGVTITCRASQNINNYLSWYQKKAGKAPKLLIYGASTLHSGVPSRFSGSGSGTDFTLTISSLQPEDFASYYCQQNSPTPPWTFGQGTKVEIK
Ancestral Pseudovirus IC50 [1]: 0.00152 mg/L

B18: rbd.143 (antibody, V domains shown)
VH: EVQLVESGGGLVQPGGSLRLSCSASGFTFRRYAMHWVRQAPGKGLQHVSAISSDGDNTHYADSVKGRFTISRDNFKNTLHLQMSSLRPEDTAVYYCVKDPFSNFHYFDCWGQGILVTVSS
VL: not shown
Ancestral Pseudovirus IC50 [1]: 0.28 mg/L

B19: sd1.127 (antibody, V domains shown)
VH: EVQLVESGGALVKPGGSLTLSCVASGFTFSHAWMTWVRQAPGKGLEWVGRIKTKTEGGTIDYAAPLRGRFTISRDDSKNTLYLRMNSLKIEDTAKYYCTTHSSPDYWGQGTLVTVSS
VL: DIQMTQSPSSLSASIGDRVTITCRASQGIGNSLLWYQQKRGKVPKLLIYAASTLQSGVPSRFSGSGSGTDFTLTISSLQPEDVATYYCQRYNSAPLTFGGGTKVEIK
Ancestral Pseudovirus IC50 [1]: 6.68 mg/L

B20: rbd.043 (antibody, V domains shown)
VH: QVQLVQSGAEVKKPGSSVKVSCKVSGGSFSNYGISWVRQAPGQGLEWMGGIIPLFGPADYAQKVQGRVTITADKSTSTAYMELRSLRSEDTAVYFCARGVEIVATIVGPLVREDHYYYYGMDVWGQGTTVTVSS
VL: not shown
Ancestral Pseudovirus IC50 [1]: 0.000573 mg/L

B21: rbd.113 (antibody, V domains shown)
VH: EVQLVQSGAAVKKPGESLKISCKGSGYSFTNYWIGWVRQMPGKGLELMGIIYVGDSDTRYSPSFQGQVTISADKSITTAYLQWSSLKASDSAIYYCARQRCGGDCPFDLWGRGTLVTVSS
VL: DIQMTQSPSTLSASVGDRVTITCRASQSINRWLAWYQQKPGKAPELLIYDASDLESGVPSRFSGSGSGTEFTLTISSLQPDDFATYYCQQYNSYWTFGQGTKVEIK
Ancestral Pseudovirus IC50 [1]: 0.373 mg/L

B22: rbd.031 (antibody, V domains shown)
VH: EVQLVESGGGVVQPGRSLRLSCAASGFTFKTYGMHWVRQAPGKGLEWVAVISYEGSNEYYAESVKGRFTISRDNSKNTLYLHMNSLRAEDTAVYYCAKGEYYYHSSTYYYLDYWGRGTLVTVSS
VL: B21 VL with N30S, R31S, E45K, L46V, D53S, E55Q, S60L, N92D, S93T
Ancestral Pseudovirus IC50 [1]: 0.862 mg/L

B23: rbd.142 (antibody, V domains shown)
VH: EVQLVESGGGVVQPGRSLRLSCVASGLTFSRYGMHWVRQAPGKGLEWVAVTTYDGSNKDYADSVKGRFTISRDNSKNTLYLQMNSLRAEDTAVYYCAKVGGGEYCSGGSCYGSYGMDVWGQGTTVTVSS
VL: not shown
Ancestral Pseudovirus IC50 [1]: 5.09 mg/L
